Blank lines part the entries; values can stand above or below the molecule they belong to.
How the values were obtained:
[1] = target: C-reactive protein (pCRP) (Homo sapiens) (UniProt P02741); conditions: cited from earlier work
[2] = target: T1, C-reactive protein (pentameric, biotin-labeled) (Homo sapiens), P02741; experiment: ELISA; conditions: pCRP immobilized on hydrophobic surface, biotin-labeled solution pCRP, calcium required; remark: other sources report otherwise
T1 chain: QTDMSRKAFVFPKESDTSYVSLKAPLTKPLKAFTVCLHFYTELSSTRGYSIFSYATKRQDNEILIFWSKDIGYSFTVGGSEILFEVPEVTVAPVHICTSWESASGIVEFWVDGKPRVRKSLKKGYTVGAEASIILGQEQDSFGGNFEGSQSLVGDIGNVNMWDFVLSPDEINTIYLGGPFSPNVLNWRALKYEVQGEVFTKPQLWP

Molecule: C-reactive protein (pCRP) (from UniProt P02741)
Kd [1]: 20 µM

Kd [2]: 0.0015 µM
B1: C-reactive protein (surface-immobilized intermediate, CRPi), P02741 (protein)
chain: T1 chain
